Data on eleven molecules can be found in US20260078196A1 (TJ BIOPHARMA SHANGHAI, published 2026).

Where a chain is given by its changes, count along the chain named.

The target in test [1] is T1, human MUC16 on cells (human, UniProt Q8WXI7 1-14507).
T1 construct: whole, on cells; also called huMUC16; MUC16 on OVCAR3 and SNU216 cells
Description: flow cytometry (MFI GeoMean) on SNU216 cells, nM is the unit of the x axis Log10[Ab] (nM).

Test [2] has as its target T1, human MUC16 on cells. Put plainly: flow cytometry (GMFI) on OVCAR3 cells, nM is the unit of the x axis Log10[Ab] (nM). A general note: In flow cytometry, cells or beads pass a laser one at a time.
The target in the next test is T2, huMUC16, AA14198-14507.
T2 chain: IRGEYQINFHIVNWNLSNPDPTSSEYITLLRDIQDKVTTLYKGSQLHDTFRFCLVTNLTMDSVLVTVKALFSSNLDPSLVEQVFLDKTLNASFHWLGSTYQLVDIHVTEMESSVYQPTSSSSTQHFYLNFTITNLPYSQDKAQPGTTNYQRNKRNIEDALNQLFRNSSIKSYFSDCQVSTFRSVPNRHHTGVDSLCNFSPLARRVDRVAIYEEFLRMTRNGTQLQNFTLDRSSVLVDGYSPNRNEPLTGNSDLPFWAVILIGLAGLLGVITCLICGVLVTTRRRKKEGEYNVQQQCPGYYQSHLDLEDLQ
Put plainly: binding ELISA on huMUC16 AA14198-14507. A general note: In an ELISA, binding on a coated surface is turned into a signal by an enzyme label.

The target of the next test is T3, huMUC16, AA13789-14451.
T3 construct: also called MUC16 Antigen (human MUC16 AA13789-14451)
T3 chain: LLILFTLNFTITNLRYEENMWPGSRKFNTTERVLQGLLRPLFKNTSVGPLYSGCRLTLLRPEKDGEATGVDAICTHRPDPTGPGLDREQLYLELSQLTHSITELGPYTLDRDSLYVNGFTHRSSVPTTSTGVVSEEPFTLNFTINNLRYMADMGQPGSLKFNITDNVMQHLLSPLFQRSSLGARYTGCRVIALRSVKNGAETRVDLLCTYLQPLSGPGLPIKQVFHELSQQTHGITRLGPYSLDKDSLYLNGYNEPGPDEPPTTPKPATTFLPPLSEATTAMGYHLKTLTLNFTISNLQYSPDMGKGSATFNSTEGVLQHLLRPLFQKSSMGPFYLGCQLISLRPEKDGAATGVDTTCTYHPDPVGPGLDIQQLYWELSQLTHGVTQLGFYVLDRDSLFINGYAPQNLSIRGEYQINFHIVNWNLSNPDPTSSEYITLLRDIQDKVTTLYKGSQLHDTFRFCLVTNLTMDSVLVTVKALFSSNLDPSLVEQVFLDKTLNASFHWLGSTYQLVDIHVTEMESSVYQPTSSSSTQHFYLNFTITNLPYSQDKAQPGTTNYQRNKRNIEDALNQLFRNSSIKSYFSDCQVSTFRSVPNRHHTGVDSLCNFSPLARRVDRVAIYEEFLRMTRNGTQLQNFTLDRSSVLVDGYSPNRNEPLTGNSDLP
Put plainly: binding ELISA on huMUC16 AA13789-14451.

Test [3] deals with T1, human MUC16 on cells. Put plainly: flow cytometry (MFI GeoMean) on OVCAR3 cells, nM is the unit of the x axis Log10[Ab] (nM).
The target of test [4] is T4, HEK293-MUC16 (13810-14507) (human, UniProt Q8WXI7 13810-14507).
T4 construct: range 13810-14507; also called MUC16 overexpressed HEK293 cells
T4 sequence: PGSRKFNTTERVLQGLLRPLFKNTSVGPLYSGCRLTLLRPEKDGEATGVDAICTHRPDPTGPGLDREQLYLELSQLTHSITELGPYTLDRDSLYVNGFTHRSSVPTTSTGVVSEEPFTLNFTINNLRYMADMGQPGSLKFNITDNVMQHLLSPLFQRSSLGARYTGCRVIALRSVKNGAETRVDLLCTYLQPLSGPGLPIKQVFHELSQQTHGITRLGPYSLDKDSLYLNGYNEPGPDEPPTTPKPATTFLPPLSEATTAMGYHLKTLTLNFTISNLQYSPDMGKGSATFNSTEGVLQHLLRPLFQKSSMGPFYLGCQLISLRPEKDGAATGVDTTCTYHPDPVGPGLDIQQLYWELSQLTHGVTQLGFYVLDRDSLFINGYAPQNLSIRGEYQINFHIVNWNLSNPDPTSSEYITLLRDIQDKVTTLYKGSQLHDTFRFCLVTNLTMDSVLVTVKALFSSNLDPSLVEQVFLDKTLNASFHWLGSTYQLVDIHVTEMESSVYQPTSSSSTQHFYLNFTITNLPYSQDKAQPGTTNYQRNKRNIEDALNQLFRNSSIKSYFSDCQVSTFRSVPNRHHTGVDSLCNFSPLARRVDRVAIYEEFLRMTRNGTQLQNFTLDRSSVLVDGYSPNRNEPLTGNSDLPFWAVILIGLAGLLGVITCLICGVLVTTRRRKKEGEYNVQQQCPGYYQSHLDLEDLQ
Description: flow cytometry (MFI GeoMean) on HEK293-MUC16 (13810-14507) cells, nM is the unit of the x axis Log10[Ab] (nM).

The next test concerns the target T5, 4-1BB on cells (human, UniProt Q07011 24-255).
T5 construct: Species is stated as human for section 2.2 as a whole, not for each cell line; also called HEK293 cells expressing 4-1BB; 4-1BB overexpressed HEK293 cell
Description: flow cytometry (gMFI) on HEK293-h4-1BB cells.

For test [5], the target named is T1, human MUC16 on cells. Description: flow cytometry (GMFI) on OVCAR3 cells, nM is the unit of the x axis Log10[Ab] (nM); curve without upper plateau.
For another test, the target named is T6, ROR1 on cells (UniProt Q01973 30-937).
T6 construct: whole, on cells; also called ROR1 endogenous expressed tumor cell A549; ROR1-positive tumor cell lines
Put plainly: flow cytometry (gMFI) on A549 cells.

A further test deals with T7, human MUC16 (human).
T7 construct: also called MUC16 antigen of the kinetic assay
Description: binding kinetics, sensorgrams in RU in FIG. 14B, model printed: Kinetics 1:1; form of the MUC16 antigen not given.

T5 sequence (Q07011 24-255): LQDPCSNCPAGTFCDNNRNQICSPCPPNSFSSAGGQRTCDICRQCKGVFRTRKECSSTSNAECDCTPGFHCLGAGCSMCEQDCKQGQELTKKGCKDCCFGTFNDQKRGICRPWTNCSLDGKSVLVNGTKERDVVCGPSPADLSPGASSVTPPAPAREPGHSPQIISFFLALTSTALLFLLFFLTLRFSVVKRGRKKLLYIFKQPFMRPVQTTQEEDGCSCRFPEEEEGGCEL

B1: D30 (antibody, V domains shown)
VH: QVQLVQSGAEVKKPGSSVKVSCKASGGTFSSYAISWVRQAPGQGLEWMGGIIPIFGTANYAQKFQGRVTITADESTSTAYMELSSLRSEDTAVYYCARANFNIYYYYYGMDVWGQGTLVTVSS
VL: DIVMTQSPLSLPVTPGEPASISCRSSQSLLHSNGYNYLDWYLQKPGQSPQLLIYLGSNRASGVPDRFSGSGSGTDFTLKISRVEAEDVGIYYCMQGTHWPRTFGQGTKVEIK
notes: Anti-MUC16 mAb
Usually EC50 stands for the concentration that produces a half-maximal response. Lower therefore signals greater potency. In the case of B1, the EC50 was 0.125 nM with human MUC16 on cells [1], 0.389 nM with human MUC16 on cells [2], 0.38 nM in the test with human MUC16 on cells [3] and 0.277 nM in test [4]. Moreover, the binding result in the test with huMUC16, AA14198-14507 is on record as “no binding (tested: 100 nM)”; with huMUC16, AA13789-14451 it was “binds”.

B2: D46 (antibody, V domains shown)
VH: QVQLVQSGAEVKKPGSSVKVSCKASGGTFSSYAISWVRQAPGQGLEWMGRIIPIFGIANYAQKFQGRVTITADKSTSTAYMELSSLRSEDTAVYYCAITGDYDILTGSYYYGMDVWGQGTTVTVSS
VL: NIQLTQSPSSLSASVGDRVTITCRASQGIRNDLGWYQQKPGKAPKLLIYAASSLQSGVPSRFSGSGSGTDFTLTISSLQPEDFATYYCLQDYNYPFTFGPGTKVDIK
notes: Anti-MUC16 mAb
Regarding B2, the response with human MUC16 on cells [2] was half-maximal at 0.347 nM (EC50). The binding result is on record as “no binding (tested: 100 nM)” in the test with huMUC16, AA14198-14507 and “binds” with huMUC16, AA13789-14451.

B3: 4-1BB VHH (VHH)
VHH: QVQLQESGGGLVQPGGSLRLSCAASGYTYSSNCMGWFRQAPGKGLEGVAVICTGGGSPSYADSVKGRFTISRDNAKNTLYLQMNSLRAEDTAVYYCAADLLRAGTPLSSYEFNYWGQGTLVTVSS
What is called EC50 (read off the curve) is the concentration needed to bring the measured effect to its halfway point. The low end stands for a more potent agent, the high end for a less potent agent. With B3, the “EC50 (read off the curve)” value with 4-1BB on cells is about 0.2 nM.

B4: D20 (antibody, V domains shown)
VH: QVQLVQSGAEVKKPGSSVKVSCKASGGTFSSYAISWVRQAPGQGLEWMGGIIPIFGTANYAQKFQGRVTITADESTSTAYMELSSLRSEDTAVYYCASTPELLWFGELGGAYYFDYWGQGTLVTVSS
VL: NIQLTQSPSTLSASVGDRVTITCRASESISSWLAWYQQKPGEAPKLLIYKASTLENGVPSRFSGSGSETEFTLTISSLQPDDFATYYCQQYRSHWSSTFGPGTKVDIK
notes: Anti-MUC16 mAb
Regarding B4, the binding result with huMUC16, AA14198-14507 is “no binding (tested: 100 nM)”; with huMUC16, AA13789-14451, “binds”. Further, in the test with human MUC16 on cells [5], a half-maximal effect (EC50) was put at 14.1 nM.

B5: 4B-3C5 (bispecific antibody, human IgG1, kappa)
heavy: not shown
light: DIKMTQSPSSMYASLGERVSITCRASQDIYSYLSWFQQKPGKSPKTLIYRANRLVDGVPSRFSGSGSGQDYSLTISSLEYEDMGIYYCLQYDEFPYTFGGGTKLEIKRTVAAPSVFIFPPSDEQLKSGTASVVCLLNNFYPREAKVQWKVDNALQSGNSQESVTEQDSKDSTYSLSSTLTLSKADYEKHKVYACEVTHQGLSSPVTKSFNRGEC
notes: Chimeric ROR1 x 4-1BB BsAb; also called 3C5 IgG x 4-1BB VHH
In the case of B5, the “EC50 (read off the curve)” value with 4-1BB on cells was about 0.1 nM; in the test with ROR1 on cells, about 0.08 nM.

B6: C25 (antibody, V domains shown)
VH: EVQLLESGAEVKKPGSSVKVSCKASGGTFSSYAISWVRQAPGQGLEWMGGIIPIFGTANYAQKFQGRVTITADESTSTAYMELSSLRSEDTAVYYCARDSRKYYYDSSGPALWGFDAFDIWGQGTMVTVSS
VL: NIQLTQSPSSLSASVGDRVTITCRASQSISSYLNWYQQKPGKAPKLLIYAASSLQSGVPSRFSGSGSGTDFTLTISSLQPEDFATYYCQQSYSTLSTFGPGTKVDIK
notes: Anti-MUC16 mAb from a human naive Fab phage library; also called MUC16-C25
In general, Kd refers to the equilibrium constant for the complex coming apart. A lower Kd goes with tighter binding. In general, koff refers to the first-order rate constant of dissociation. The low end stands for slow dissociation, the high end for fast dissociation. The term kon denotes a measure of how fast the partners come together. The low end stands for slow association, the high end for fast association. Consider B6, for which the EC50 in the test with human MUC16 on cells [1] worked out at 0.0978 nM; with human MUC16 on cells [2], 0.179 nM; with human MUC16 on cells [3] it was 0.242 nM; in test [4], 0.156 nM. Also, the binding result with huMUC16, AA14198-14507 is recorded as “no binding (tested: 100 nM)”; in the test with huMUC16, AA13789-14451 it was “binds”. Moreover, binding in the test with human MUC16 was characterised by a dissociation constant (Kd) of 26.9 nM. In the test with human MUC16, this molecule returned a koff of 0.00697 s⁻¹. In the test with human MUC16, this molecule had a kon of 260000 M⁻¹ s⁻¹.

B7: D1 (antibody, V domains shown)
VH: QVQLVQSGAEVKKPGSSVKVSCKASGGTFSSYAISWVRQAPGQGLEWMGGIIPIFGTANYAQKFQGRVTITADESTSTAYMELSSLRSEDTAVYYCARAPMVRGVPPTPYYYYYGMDVWGQGTTVTVSS
VL: EIVLTQSPATLSLSPGERATLSCRASQSVSNYLAWYQQKPGQAPRLLIYDASNRATGIPARFSGSGSGTDFTLTISSLEPEDFAVYYCQQRSNWPSFGQGTKVEIK
notes: Anti-MUC16 mAb
In the case of B7, the binding result is on record as “no binding (tested: 100 nM)” with huMUC16, AA14198-14507 and “binds” in the test with huMUC16, AA13789-14451. In the test with human MUC16 on cells [5], this molecule returned an EC50 of 27.6 nM.

B8: 4B-10C9 (second entry of Table 6A, with 9C9 VH and 9C9 VL) (bispecific antibody, human IgG1, kappa)
heavy: not shown
light: DIVLTQSPAITAASLGQKVTITCSASSSVTYMHWYQQKSGTSPKLWIYDISKLASGVPARFSGSGPGTSYSLTISTMEAEDAAIYYCQQWNYPLMTFGGGTKLEIKRTVAAPSVFIFPPSDEQLKSGTASVVCLLNNFYPREAKVQWKVDNALQSGNSQESVTEQDSKDSTYSLSSTLTLSKADYEKHKVYACEVTHQGLSSPVTKSFNRGEC
notes: Label 4B-10C9 is printed twice; this entry holds the 9C9 variable domains and is probably meant as 4B-9C9; also called 10C9 IgG x 4-1BB VHH (label as printed)
In the case of B8, the “EC50 (read off the curve)” value with 4-1BB on cells was about 0.3 nM; with ROR1 on cells it was about 0.2 nM.

B9: C73 (antibody, V domains shown)
VH: QVQLMQSGAEVKKPGSSVKVSCKASGGTFSSYAISWVRQAPGQGLEWMGGIIPIFGTANYAQKFQGRVTITADESTSTAYMELSSLRSEDTAVYYCAREPPLSNYGDYATEQYYYGMDVWGQGTLVTVSS
VL: not shown
notes: Anti-MUC16 mAb
Regarding B9, the binding result is recorded as “no binding (tested: 100 nM)” in the test with huMUC16, AA14198-14507 and “binds” in the test with huMUC16, AA13789-14451. In the test with human MUC16 on cells [5], this molecule returned an EC50 of 50.1 nM.

B10: 4B-8F2 (bispecific antibody, human IgG1, kappa)
heavy: not shown
light: DVVMTQTPLTLSVTIGQPASISCKSSQSLLHSNGKTYLNWLLQRPGQSPNLLIYLVSKLESGVPDRFSGSGSGTDFTLKISRVEAEDLGVYYCLQATYFPYTFGSGTKLEIKRTVAAPSVFIFPPSDEQLKSGTASVVCLLNNFYPREAKVQWKVDNALQSGNSQESVTEQDSKDSTYSLSSTLTLSKADYEKHKVYACEVTHQGLSSPVTKSFNRGEC
notes: Chimeric ROR1 x 4-1BB BsAb; also called 8F2 IgG x 4-1BB VHH
B10: the “EC50 (read off the curve)” value with 4-1BB on cells was about 0.2 nM; with ROR1 on cells, about 0.03 nM.

B11: 4B-10C9 (bispecific antibody, human IgG1, kappa)
heavy: not shown
light: B10 light with T14A, S32I, N50K, Y98H
notes: also called 10C9 IgG x 4-1BB VHH
Turning to B11, the “EC50 (read off the curve)” value in the test with 4-1BB on cells and with ROR1 on cells was about 0.3 nM throughout.
